This note sets out measurements from article PMC10763564 (2023).

In this assay the target is extracellular domain of Transferrin Receptor 1 (UniProt P02786 89-760). Put plainly: BLI.

Starred links: 1 amine or outer side, 2 acyl side, 3 side chain; linkers in the order of their positions; H or OH if unused. Positions of bridges follow the written chain, without caps; N, C: chain ends. No end group written: not given here. TBMB = c1c(C[*:1])cc(C[*:3])cc1C[*:2]

Chain of extracellular domain of Transferrin Receptor 1 (P02786 89-760): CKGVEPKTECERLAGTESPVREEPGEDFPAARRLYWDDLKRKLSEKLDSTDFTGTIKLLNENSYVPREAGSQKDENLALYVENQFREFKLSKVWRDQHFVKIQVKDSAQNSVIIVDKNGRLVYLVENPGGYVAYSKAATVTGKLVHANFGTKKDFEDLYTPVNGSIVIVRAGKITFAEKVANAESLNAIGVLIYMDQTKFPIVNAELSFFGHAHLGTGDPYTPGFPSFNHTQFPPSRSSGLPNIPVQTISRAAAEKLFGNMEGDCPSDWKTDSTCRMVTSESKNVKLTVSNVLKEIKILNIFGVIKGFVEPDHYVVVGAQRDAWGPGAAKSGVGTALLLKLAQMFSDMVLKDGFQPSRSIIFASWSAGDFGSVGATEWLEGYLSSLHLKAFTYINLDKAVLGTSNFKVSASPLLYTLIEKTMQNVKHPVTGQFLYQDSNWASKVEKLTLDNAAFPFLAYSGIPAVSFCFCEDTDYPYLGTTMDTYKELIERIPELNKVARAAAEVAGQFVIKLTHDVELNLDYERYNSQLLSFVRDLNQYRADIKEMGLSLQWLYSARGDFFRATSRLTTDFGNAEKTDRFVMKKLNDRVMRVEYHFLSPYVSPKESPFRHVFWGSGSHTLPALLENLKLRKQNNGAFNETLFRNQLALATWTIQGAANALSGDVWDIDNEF

Broadly, the Kd is the constant that tells how readily two partners part at equilibrium. Read a high Kd as a looser complex. With CVHWDCRQWC (linker 1-6-10 via TBMB) [BrainBike-4 as used in biolayer interferometry], the affinity, expressed as Kd, was 25 µM.
